# Assay results from IntAct's records for PubMed 26859459.
# B1: Mitogen-activated protein kinase kinase kinase 21 (Homo sapiens), Q5TCX8 (parent)
# chain: MALRGAAGATDTPVSSAGGAPGGSASSSSTSSGGSASAGAGLWAALYDYEARGEDELSLRRGQLVEVLSQDAAVSGDEGWWAGQVQRRLGIFPANYVAPCRPAASPAPPPSRPSSPVHVAFERLELKELIGAGGFGQVYRATWQGQEVAVKAARQDPEQDAAAAAESVRREARLFAMLRHPNIIELRGVCLQQPHLCLVLEFARGGALNRALAAANAAPDPRAPGPRRARRIPPHVLVNWAVQIARGMLYLHEEAFVPILHRDLKSSNILLLEKIEHDDICNKTLKITDFGLAREWHRTTKMSTAGTYAWMAPEVIKSSLFSKGSDIWSYGVLLWELLTGEVPYRGIDGLAVAYGVAVNKLTLPIPSTCPEPFAKLMKECWQQDPHIRPSFALILEQLTAIEGAVMTEMPQESFHSMQDDWKLEIQQMFDELRTKEKELRSREEELTRAALQQKSQEELLKRREQQLAEREIDVLERELNILIFQLNQEKPKVKKRKGKFKRSRLKLKDGHRISLPSDFQHKITVQASPNLDKRRSLNSSSSSPPSSPTMMPRLRAIQLTSDESNKTWGRNTVFRQEEFEDVKRNFKKKGCTWGPNSIQMKDRTDCKERIRPLSDGNSPWSTILIKNQKTMPLASLFVDQPGSCEEPKLSPDGLEHRKPKQIKLPSQAYIDLPLGKDAQRENPAEAESWEEAASANAATVSIEMTPTNSLSRSPQRKKTESALYGCTVLLASVALGLDLRELHKAQAAEEPLPKEEKKKREGIFQRASKSRRSASPPTSLPSTCGEASSPPSLPLSSALGILSTPSFSTKCLLQMDSEDPLVDSAPVTCDSEMLTPDFCPTAPGSGREPALMPRLDTDCSVSRNLPSSFLQQTCGNVPYCASSKHRPSHHRRTMSDGNPTPTGATIISATGASALPLCPSPAPHSHLPREVSPKKHSTVHIVPQRRPASLRSRSDLPQAYPQTAVSQLAQTACVVGRPGPHPTQFLAAKERTKSHVPSLLDADVEGQSRDYTVPLCRMRSKTSRPSIYELEKEFLS
# partner: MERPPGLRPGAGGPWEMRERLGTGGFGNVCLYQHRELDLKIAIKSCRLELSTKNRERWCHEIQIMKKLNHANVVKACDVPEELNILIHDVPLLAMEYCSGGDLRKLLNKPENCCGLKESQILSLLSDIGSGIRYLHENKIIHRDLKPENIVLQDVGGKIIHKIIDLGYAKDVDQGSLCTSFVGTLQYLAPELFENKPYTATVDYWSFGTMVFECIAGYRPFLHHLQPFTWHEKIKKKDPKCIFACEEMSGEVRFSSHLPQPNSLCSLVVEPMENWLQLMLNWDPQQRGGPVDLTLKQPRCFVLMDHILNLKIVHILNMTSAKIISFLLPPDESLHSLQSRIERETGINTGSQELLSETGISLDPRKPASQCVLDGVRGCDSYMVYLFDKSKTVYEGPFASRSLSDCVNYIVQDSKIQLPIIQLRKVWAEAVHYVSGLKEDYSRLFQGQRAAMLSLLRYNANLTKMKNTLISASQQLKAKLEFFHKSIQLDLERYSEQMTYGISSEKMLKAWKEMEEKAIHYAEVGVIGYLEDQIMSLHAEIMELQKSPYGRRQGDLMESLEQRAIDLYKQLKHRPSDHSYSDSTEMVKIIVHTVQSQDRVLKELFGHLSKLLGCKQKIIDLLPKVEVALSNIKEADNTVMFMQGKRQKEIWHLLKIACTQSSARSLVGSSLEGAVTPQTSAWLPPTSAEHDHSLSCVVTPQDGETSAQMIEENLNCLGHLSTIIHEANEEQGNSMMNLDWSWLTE
# Variants of: B1
# Conditions: with ikka_human CHUK
row,effect of a mutation on the interaction,Variant
1,decreasing interaction strength,K151A
